Laboratory results taken from the nanobody polyreactivity screen of Harvey et al. (2022).

Experiment: yeast display, Sf9 membrane polyspecificity reagent, FACS + sequencing; frameworks hold sequencing errors
Outline: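 Genes from sorted yeast were amplified by colony PCR, read by MiSeq 2 × 250 sequencing and filtered on CDR length. These cells carried a synthetic nanobody library in Saccharomyces cerevisiae BJ5465 and were sorted by FACS into low and high (top ~1%) gates on anti-HA and streptavidin fluorescence. Polyreactivity is labelled according to the gate of origin.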

| Sequence | polyreactivity (PSR sort gate) |
| --- | --- |
| QVQLVESGGGLVQAGGSLRLSCAASGFTFRRYVMGWYRQAPGKERELVAAISSGGRTNYADSVKGRFTISRYNAKNTVYLQMNSLKPEDTAVYYCNKASTSYYRFNYWGQGTQVTVSS | high polyreactivity |
| QVQLVESGGGLVQAGGSLRLSCAASGGIFNINAMGWYRQAPGKERELVAGINWSDTGTYYADSVKGRFTISRDNAKNTVYLQMNSLKPEDTAVYDCAVSGYPVYITYVSYDYDYWGQGTQVTVSS | low polyreactivity |
| QVQLVESGAGLVQAGGSLRLSCAASGYIFLRYAMGWSRQAPGKERELVAAIRGGSTNYADSVKGRFTISRDNAKNTVYLQMNSLKPEDTAVYYCAARGSKKQAYGYWGQGTQVTVSS | high polyreactivity |
| QVQLVESGGGLVKAGGSLRLSCASSGSTFVGNAMGWYRQAPGKERELVAAISVNDGTTYYADSVKGRFTISRDNAKNTVYLQMNSLKPEDTAVDYCNVKRYGCRSDYWGQGTQVTVSS | high polyreactivity |
| QVQLVESGGGLVHAGGSLRLSCAASGSTFYYNAMGWYRQAPGKERELVAAITKSGDDTYYADSEKGRFTISRDNATNTVYLQMNSLKPEDTAVSYCAAYLSWYDYWGQGTQVTVSS | low polyreactivity |
| QVQLVESGGGLVQAGGSLRLSCAPSGYTYSDYAMGWYRQAPAKERELVAGITGGGGTYYADSVKGRFTISRDNAKNTVYLQMNSLKPEDTAVYYCAAGRRHGFGYWGQGTQVTVSS | low polyreactivity |
| QGQLVESGGGLVQAGGSLRLSCAASGRIFGHYAMGWYRQAPGKERELVAAISQSGTNTYYADSVKGRFTISRDNAKNTVYLQMNSLKPEDTAVYYCAAKPPRRYQLMDYWGQGTQVTVSS | high polyreactivity |
| QVQLVESGGSLVQAGGSLRLSCDASGRTFGTNAMGWYRQAPRKETELVAAISWRGTSTYYADSVKGRFTNSRDNAKNTVYLQMNSLKPEDTAVYYCAARGYRADQWEYDYWGQGTQVTVSS | low polyreactivity |
| QVQLVESGGGLVQAGGSLRLSCAASGSIFFSNAMGWYRQAPGKEREFVATITSSGVGTYYADSVKGRFTISRDNAKNTVYLQMNSLKPEDTAVDYCDADYNSQEDYWGQGTQVTVSS | low polyreactivity |
| QVQLVESGGGLVQAGGSLRLSCAASGSILYIYAMGWYRQAPGKERELVAAISKNSADTYYADSVKGRFTISRDNAKNTVYLQMNSLKPEDTAVYYCAADVVKVAAYNYWGQGSQVTVSS | low polyreactivity |
| QVQLVESGGGLVQAGGSLRLSCAASGSTFITNAMGWYRQAPGKERELVAAISSSGGSTYYADSVKGRFTISRDNAKNTVYLQMNSLKPEDTAVYYCNAVPYVPRFDYWGQGTQVTVSS | low polyreactivity |
| QFQLVESGGGLVQAGGSLRLSCAASGITFSNYALGWYRQAPGKERELVAAISKRGGSTYYADSVKGRFTISRDNAKTTVDLQMNSLKPEDTAVYYCAADAYNPPYWVDPYDYWGQGTQVTVSS | high polyreactivity |
| QVQLVESGGGLVQAGGSLRLSCAASGSTFSIYARGWYRPAPGKERELVAAISYSDGTTYSADSVKGRFTISRDNAKNTDYVQMNSLKPEDTAVYYCATQQIWTSWYDRFDYWGQGTQVTVSS | low polyreactivity |
| QVQLVESGGGLVQAGGSLRLSCAASGSIFYVYAMGWYRQAPGKERELVAAITSSGTTNYADSVKGRFTISRDNAKNTVYLQMNSLKPEDTAVYYCAADFYYYKKQYDYWGQGTQVTVSS | low polyreactivity |
| QVQLVDSGGGLVQAGGSLRLSCADSGSIFGVYAMGWYRQATGKESELVAAISISDGITYYADSVKGRFTISRDNAKNNVYLQMNSLKPEDTAVYYCAAELSPYYYGESYDYWGQGTQVTVSS | high polyreactivity |
| QVQLVESGGGLVQAGGSLRLSCAASGSIFYKYMGWYRQAPGKERELVAAMTWSGGSTYYADSVKGRFTISRDNAKNTVYLQMNSLKPEDTAVYYCNADDRHSRVGHSWQDAQFDYWGQGTQVTVSS | high polyreactivity |
| QVQLVESGGGLVQAGGSLRLSCAASVRIFQYYVMGWYIQAPGKERELVAAITSGGGTKYADSVKGRFTISRDNAKNTVYLQMNSLIPEDTAVYFCAAAWFDQYSRYDYWGQGTQVTVSS | low polyreactivity |
| QVQLVESVRGLVQAGGSLRLSCAASGSIFDYNAMGWYREAPGKEREFVASITYSGGSTNYADSVKGRFTISRDNAKNTVYLQMNSLKPEDTAVYYCSKTIGIVWIYYPGARYDYWGQGTQVTVSS | low polyreactivity |
| QVQLQESGGGLVQAGGSLRLSCAASGTISYAPHMGWYRQAPGKERELVAGITIGGTTYYADIVIGRFTISRDNAKNTVFLQMNSLSPGDTAVYYCAAHSEQYTPFYYWGQGTQVTVSS | low polyreactivity |
| QVQLVESGGGLVQAGGSLRLSCAASGFTFNDYAMGWYRQAPGKERELVAAIDWSGGRTYYADSVKGRFTISRDNAKNTVYLQMNSLKPEDTAVYYCAAVLYSRMYWYRLDYWGQGTQVTVSS | low polyreactivity |
| QVQLVESGGGLVQAGGSLRLSCAASGITFVPNAMGWYRQAPGKERELVAAITGNGGRTYYADSVKGRFTISRDNAKNTVYLQMNSLKPEDTAVYYCNGRKLYWAYTLSKYDYWGQGTQLTVSS | high polyreactivity |
| QVQRVESGGGLVQAGGSLRLSCAASGITFKYYGMGWYRRAPGKERELVAAITRSGGSTSYADSVKGRFTISRDNAKNTVYLQMHSLKPEDTAVYYCAAERYVLTWLGIERYYWGQGTQVTVSS | high polyreactivity |

| Sequence | polyreactivity (PSR sort gate) |
| --- | --- |
| QVKLVESGGGLVQAGGSLRLTCDASGRIFSSYAMGWYRQAPGKERELVAAIRSSGDRTYYADSVKGRFTISRDNAKNTVYLQMNSLKPEDTAVYYCAARAVLKSWAYYYWGQGTQVTVSS | high polyreactivity |
| QVQLVESGGGLVQAGGSLRLSCAASGFTFYRYAMGWYRQAPGKERELVAAISSTGDRTYYADSVKGRFTISRDNAKNTVYLQMNSLKPEDTAVYYCAAPYQNQVEFNYWGQGTQVTVSS | high polyreactivity |
| QVQLVESGGGLVQAGGSLRLSCAASGFTFRYNAMGWYRQAPGKEREVVAAITSGGNTNYADSVKGRFTISRDNAKNTFYLQMNSLKPEDTAVYYCNTAWRDYVARLGGVGYDYWGQGTQVTVSS | high polyreactivity |
| QVQLVESGGGLVQAGGSLRLSCAASGFTFSYYAMGWYRQAPGKERELVAAITSSAGSTYYADSVKGRFTISRDNAKNTVYLQMNSLKPEDTAVYYCNAVYSKLNGGYDYWGQGTQVTVSS | low polyreactivity |
| QVQLVESGGGLVQAGGSLRLSCAASGSIFRYYAMGWYRQAPGKERELVAVISSGGTRTNYADSVKGRFTISRDTAKNTVYLQMNSLKPEDTAVYYCAAGYLSLYGGGYWGQGTQVTVSS | high polyreactivity |
| QVQLVESGGGLVQAGGSLRLTCAASGNTFVGNAMGWYRQAPGKERELVAAISRRGGSTYYADSVKGRFTISRDYAKNTVYLQMNSLKPEDTAEYYCAVGWAGRYDYWGQGTQVTVSS | low polyreactivity |
| QVQLVESGGGLVQAGGSLRLSCAASGSTFPYYARGWYRQAPGKERELVAAITSGGSTNYADSVKGRFTISRDNAKNTVYLQMNSLKPEDTAVYYCAARLRYTTVIYYYWGQGTQVTVSS | high polyreactivity |
| QVQLVESGGGLVQAGGSLRLRCAASGRTFGQNAMGLYRQAPGKEREFVAAISSSGGSTYYADSVKGRFTISRDNAKNTVYLQMNSLKPEDTAVYYCNARQYYYRSGAYASRYLYNYWGQGTQVTVSS | high polyreactivity |
| QVQLVESGGGLVQAGGSLRLICAASGRTLWWYAMGWYRQAPGKESELVAAIDYSDGNTYYADSVKGRFTISRDYAKNTVYLQMNSLKPEDTAVYFCAAEGYYNYGSYYWGQGTQVTVSS | high polyreactivity |
| QVQLVESGGGLVQAGGSLRLSCAASGIIFYPNAMGWYRQAPGKERELVAAITSDGSTYYADSVKGRFTISRDNAKNTVYLQMNSLKPEDTAVYYCAAWDDYGYDYWGQGTQVTVSS | low polyreactivity |
| QAQLQESRGSVVQAGLGLRLSCAASGYISVGSVMGWYRQAPSKERELVASIDQGANTNYADSVKGRFTISRDNAKNNVYLQMISLKPEDTEVYYCATETTYILNYWGQGSQVTVSS | low polyreactivity |
| QVQLVESGGGLVQAGGSLRLSCSASRSTFPGYAMGWYRQAPGKERELVAAISVSGDRTYYADSVKRRFTISRDNPQNTVYLQMNRLKPEDTAVYYCAVRTRYRGSGVWVGNYSWGQGTQVTVSS | high polyreactivity |
| QVQLVESGGGLVQAGGSLRVSCAASGRSFWTDTMGWYRQAPGKEREFVAAITFGDGSTSYADSVKGRFTISRDNAKNTVYLQMNSLKPEDTAVYYCAKRWRRRFVDVWSLYDYWGQGTQVTVSS | low polyreactivity |
| QVQLVESGGGLVQAGGSLRISCAASARTLKRNAMGWYRQAPGKERELVAAISFRVTNTYYADSVKGRFTISRDNAKNTVYLQMYSLKPEDTAVYYCAVPDSRFYSPRRVSPHDYWGQGTQVTVSS | high polyreactivity |
| QVQLVESGGGIVQAGGSLRLSCAASGRIFGWYAMGWYREAPGKERELVAAISSGGRTKYADSVKGRFTISRDNAKNTVYLQMNSLKAEDTAVYYCNARRSYLPYKFGYDYWGQGTQVTVSS | low polyreactivity |
| QVQLVESGGGLVQAGGSLRLSCAASGSTINSYAMGWYRQAPGKERELVAAITWIGGNTYYADSVKGRFTISRDNAKNTVYLQMNSLKPEDTAVYYCAADEYFEYYYWGQGTQVTVSS | low polyreactivity |
| QVQLVESGGGLVQAGGSLRLSCAASGRIFAGYAMGWYRQAPGKERELVAAITTGGSTHYADSVKGRFTISRDNAKNTVYLQMNSLKPEDTAVYYCNAKVEFWESWGWLLDDDYWGQGTQVTVSS | low polyreactivity |
| QLQLVESGGGLVQAGGSLRLSCAASGYTFKWYAMGCYRQAPGKERELVAAIRGSGGSSYYAVSVKGRFTISRDNAKNTVYLQMNSLKPEDTAGYYCNAVLRWAQNPRIFLGYDYWGQGTQVTVSS | high polyreactivity |
| QVQPVESVGGLVQAGGSLRLSGAASGSIFAVYAMRWYRQPPGNERELVARITRGGGSTYYADSVKGRVTISRDNAKNTVYLQMNSLKPEDTAVYYCAAARRSQYRTWMNYWGQGTQVTVSS | high polyreactivity |
| QVQLVESGGGLVQAGGSLRLSCAGSGFTFAYYAMGWYRQAPGKERELVAAITRGGGRTFYADSVKGRFTISRDNAKNTVYLQMNSLKPEDTAVYYCAAVKDTTNSRGYGYWGQGTQVTVSS | high polyreactivity |
| QVQLVESGRGLVQAGGSLRLSCAASGFTFRRYAMVWYRQAPGKERELVAAITRNGGSTYYADSVKGRFTISRDNAKNTVYFQMNRLKPEDTEVYYCNAVLYTPVYDGFDSWGQGTQVTVSS | high polyreactivity |
